Source: patent US10344077 (DUKE UNIVERSITY, dated 2019)

How the values were obtained:
SSB [1] = target: T1, SSB (UniProt P05455 1-408); test: AtheNA
T1 sequence (looked up): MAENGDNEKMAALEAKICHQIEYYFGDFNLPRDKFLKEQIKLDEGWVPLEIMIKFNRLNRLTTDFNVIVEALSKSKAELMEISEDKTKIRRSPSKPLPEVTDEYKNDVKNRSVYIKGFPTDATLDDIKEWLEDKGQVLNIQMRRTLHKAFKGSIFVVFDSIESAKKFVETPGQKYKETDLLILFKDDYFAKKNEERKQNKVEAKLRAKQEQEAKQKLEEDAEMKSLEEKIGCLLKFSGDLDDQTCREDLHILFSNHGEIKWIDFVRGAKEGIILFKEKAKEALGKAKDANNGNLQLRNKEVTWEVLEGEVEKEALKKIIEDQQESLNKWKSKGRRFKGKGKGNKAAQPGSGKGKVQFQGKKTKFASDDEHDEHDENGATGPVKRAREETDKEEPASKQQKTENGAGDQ
Excerpt: (§1) AtheNA Multi-Lyte ANA Plus Test System is one such assay. This is luminex-based assay, which is also used to screen patient sera.

Scl-70 [2] = target: T2, Scl-70 (UniProt P11387 2-765); test: AtheNA
T2 sequence (looked up): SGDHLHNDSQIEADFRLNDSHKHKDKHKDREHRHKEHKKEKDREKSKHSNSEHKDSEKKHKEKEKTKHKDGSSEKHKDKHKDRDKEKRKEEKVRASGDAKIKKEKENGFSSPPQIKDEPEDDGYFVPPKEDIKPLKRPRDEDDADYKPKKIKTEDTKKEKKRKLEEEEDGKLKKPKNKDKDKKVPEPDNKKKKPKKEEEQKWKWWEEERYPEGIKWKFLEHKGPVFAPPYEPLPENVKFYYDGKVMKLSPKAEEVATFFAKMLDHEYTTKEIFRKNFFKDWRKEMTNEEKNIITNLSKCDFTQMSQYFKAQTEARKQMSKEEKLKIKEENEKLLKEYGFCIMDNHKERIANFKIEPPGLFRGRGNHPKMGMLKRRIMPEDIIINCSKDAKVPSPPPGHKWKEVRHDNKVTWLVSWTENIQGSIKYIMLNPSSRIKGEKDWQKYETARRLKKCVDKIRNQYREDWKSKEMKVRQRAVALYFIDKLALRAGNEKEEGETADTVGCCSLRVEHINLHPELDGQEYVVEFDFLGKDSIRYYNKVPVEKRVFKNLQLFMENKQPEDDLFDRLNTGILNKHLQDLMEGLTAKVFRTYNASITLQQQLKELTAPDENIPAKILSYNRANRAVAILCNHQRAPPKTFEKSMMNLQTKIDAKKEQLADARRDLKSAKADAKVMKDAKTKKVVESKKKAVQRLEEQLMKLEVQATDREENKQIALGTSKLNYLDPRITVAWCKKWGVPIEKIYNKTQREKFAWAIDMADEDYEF
Excerpt: as §1

Jo-1 [3] = target: T3, Jo-1 (UniProt P12081 2-509); test: AtheNA
T3 sequence (looked up): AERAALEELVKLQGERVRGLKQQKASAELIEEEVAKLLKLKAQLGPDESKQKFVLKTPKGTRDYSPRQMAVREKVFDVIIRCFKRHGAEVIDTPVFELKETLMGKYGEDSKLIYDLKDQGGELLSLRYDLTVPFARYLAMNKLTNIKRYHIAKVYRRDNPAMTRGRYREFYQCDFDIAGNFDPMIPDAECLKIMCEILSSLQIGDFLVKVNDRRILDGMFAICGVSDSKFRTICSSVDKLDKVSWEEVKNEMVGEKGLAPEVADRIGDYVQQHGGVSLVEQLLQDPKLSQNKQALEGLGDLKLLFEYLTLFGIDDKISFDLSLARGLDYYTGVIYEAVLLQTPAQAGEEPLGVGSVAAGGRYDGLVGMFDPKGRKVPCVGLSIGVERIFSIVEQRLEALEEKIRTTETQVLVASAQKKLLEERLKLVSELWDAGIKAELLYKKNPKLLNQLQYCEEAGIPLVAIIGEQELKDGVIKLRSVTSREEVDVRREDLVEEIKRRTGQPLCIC
Excerpt: as §1

STUB-1 = target: T4, STUB-1 (human, UniProt Q9UNE7 1-303); test: array of human antigens
T4 sequence (looked up): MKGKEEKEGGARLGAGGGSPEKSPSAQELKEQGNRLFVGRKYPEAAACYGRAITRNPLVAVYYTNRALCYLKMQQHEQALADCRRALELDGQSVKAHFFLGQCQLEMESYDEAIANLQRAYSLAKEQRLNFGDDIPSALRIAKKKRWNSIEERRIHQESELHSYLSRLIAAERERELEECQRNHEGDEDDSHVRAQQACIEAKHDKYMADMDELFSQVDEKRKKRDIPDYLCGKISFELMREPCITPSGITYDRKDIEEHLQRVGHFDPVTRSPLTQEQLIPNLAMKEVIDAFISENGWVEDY

SSA [4] = test: AtheNA, Ab 25 ug/ml
Excerpt: as §1

SSB [5] = target: T1, SSB; test: AtheNA, Ab 25 ug/ml
Excerpt: as §1

Sm (Smith antigen) [6] = test: AtheNA, Ab 25 ug/ml
Excerpt: as §1

RNP (ribonucleoprotein) [7] = test: AtheNA, Ab 25 ug/ml
Excerpt: as §1

Scl-70 [8] = target: T2, Scl-70; test: AtheNA, Ab 25 ug/ml
Excerpt: as §1

Jo-1 [9] = target: T3, Jo-1; test: AtheNA, Ab 25 ug/ml
Excerpt: as §1

Centromere B [10] = target: T5, Centromere B (UniProt P07199 2-599); test: AtheNA, Ab 25 ug/ml
T5 construct: also called Cent B
T5 sequence (looked up): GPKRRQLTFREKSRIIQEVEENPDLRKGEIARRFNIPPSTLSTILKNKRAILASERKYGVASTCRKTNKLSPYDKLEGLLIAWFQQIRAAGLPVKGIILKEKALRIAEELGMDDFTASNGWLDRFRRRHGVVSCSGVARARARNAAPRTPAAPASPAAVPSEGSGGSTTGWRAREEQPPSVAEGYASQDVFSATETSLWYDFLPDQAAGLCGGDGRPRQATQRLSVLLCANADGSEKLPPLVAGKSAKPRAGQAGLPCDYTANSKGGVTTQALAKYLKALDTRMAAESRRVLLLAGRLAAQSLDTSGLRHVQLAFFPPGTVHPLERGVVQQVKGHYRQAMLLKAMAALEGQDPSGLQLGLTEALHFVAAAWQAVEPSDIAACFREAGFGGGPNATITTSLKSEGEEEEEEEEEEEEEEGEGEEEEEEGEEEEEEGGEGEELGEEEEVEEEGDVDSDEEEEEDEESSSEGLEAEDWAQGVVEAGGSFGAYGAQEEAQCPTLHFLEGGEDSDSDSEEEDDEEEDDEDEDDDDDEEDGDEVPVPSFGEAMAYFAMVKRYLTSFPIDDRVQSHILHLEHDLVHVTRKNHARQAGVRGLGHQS
Excerpt: as §1

Histones [11] = test: AtheNA, Ab 25 ug/ml
Excerpt: as §1

SSA [12] = test: AtheNA, Ab 50 ug/ml
Excerpt: as §1

SSB [13] = target: T1, SSB; test: AtheNA, Ab 50 ug/ml
Excerpt: as §1

Sm (Smith antigen) [14] = test: AtheNA, Ab 50 ug/ml
Excerpt: as §1

RNP (ribonucleoprotein) [15] = test: AtheNA, Ab 50 ug/ml
Excerpt: as §1

Scl-70 [16] = target: T2, Scl-70; test: AtheNA, Ab 50 ug/ml
Excerpt: as §1

Jo-1 [17] = target: T3, Jo-1; test: AtheNA, Ab 50 ug/ml
Excerpt: as §1

Centromere B [18] = target: T5, Centromere B; test: AtheNA, Ab 50 ug/ml
Excerpt: as §1

Histones [19] = test: AtheNA, Ab 50 ug/ml
Excerpt: as §1

SSA [20] = test: AtheNA, Ab 12.5 ug/ml
Excerpt: as §1

SSB [21] = target: T1, SSB; test: AtheNA, Ab 12.5 ug/ml
Excerpt: as §1

Sm (Smith antigen) [22] = test: AtheNA, Ab 12.5 ug/ml
Excerpt: as §1

RNP (ribonucleoprotein) [23] = test: AtheNA, Ab 12.5 ug/ml
Excerpt: as §1

Scl-70 [24] = target: T2, Scl-70; test: AtheNA, Ab 12.5 ug/ml
Excerpt: as §1

Jo-1 [25] = target: T3, Jo-1; test: AtheNA, Ab 12.5 ug/ml
Excerpt: as §1

Centromere B [26] = target: T5, Centromere B; test: AtheNA, Ab 12.5 ug/ml
Excerpt: as §1

Histones [27] = test: AtheNA, Ab 12.5 ug/ml
Excerpt: as §1

SSA [28] = test: AtheNA, Ab 6.25 ug/ml
Excerpt: as §1

SSB [29] = target: T1, SSB; test: AtheNA, Ab 6.25 ug/ml
Excerpt: as §1

Sm (Smith antigen) [30] = test: AtheNA, Ab 6.25 ug/ml
Excerpt: as §1

RNP (ribonucleoprotein) [31] = test: AtheNA, Ab 6.25 ug/ml
Excerpt: as §1

Scl-70 [32] = target: T2, Scl-70; test: AtheNA, Ab 6.25 ug/ml
Excerpt: as §1

Jo-1 [33] = target: T3, Jo-1; test: AtheNA, Ab 6.25 ug/ml
Excerpt: as §1

Centromere B [34] = target: T5, Centromere B; test: AtheNA, Ab 6.25 ug/ml
Excerpt: as §1

Histones [35] = test: AtheNA, Ab 6.25 ug/ml
Excerpt: as §1

B1: CH557 (antibody, V domains shown)
VH: QVRLAQYGGGVKRLGATMTLSCVASGYTFNDYYIHWVRQAPGQGFELLGYIDPANGRPDYAGALRERLSFYRDKSMETLYMDLRSLRYDDTAMYYCVRNVGTAGSLLHYDHWGSGSPVIVSS
VL: EIVLTQSPATLSASPGERVTLTCRASRSVRNNVAWYQHKGGQSPRLLIYDASTRAAGVPARFSGSASGTEFTLAISNLESEDFTVYFCLQYNNWWTFGQGTRVDIK
notes: also called CH557_4A/293i
binding result (SSB [1]): no binding (tested: 6.25 ug/ml to 50 ug/ml) | binding result (Scl-70 [2]): no binding (tested: 6.25 ug/ml to 50 ug/ml) | binding result (Jo-1 [3]): no binding (tested: 6.25 ug/ml to 50 ug/ml) | binding result (STUB-1): no binding | Athena reading (SSA [4]): 4 relative luminescence units | Athena reading (SSB [5]): 12 relative luminescence units | Athena reading (Sm (Smith antigen) [6]): 6 relative luminescence units | Athena reading (RNP (ribonucleoprotein) [7]): 6 relative luminescence units | Athena reading (Scl-70 [8]): 4 relative luminescence units | Athena reading (Jo-1 [9]): 2 relative luminescence units | Athena reading (Centromere B [10]): 25 relative luminescence units | Athena reading (Histones [11]): 8 relative luminescence units | Athena reading (SSA [12]): 6 relative luminescence units | Athena reading (SSB [13]): 15 relative luminescence units | Athena reading (Sm (Smith antigen) [14]): 8 relative luminescence units | Athena reading (RNP (ribonucleoprotein) [15]): 10 relative luminescence units | Athena reading (Scl-70 [16]): 6 relative luminescence units | Athena reading (Jo-1 [17]): 10 relative luminescence units | Athena reading (Centromere B [18]): 46 relative luminescence units | Athena reading (Histones [19]): 16 relative luminescence units | Athena reading (SSA [20]): 3 relative luminescence units | Athena reading (SSB [21]): 9 relative luminescence units | Athena reading (Sm (Smith antigen) [22]): 6 relative luminescence units | Athena reading (RNP (ribonucleoprotein) [23]): 3 relative luminescence units | Athena reading (Scl-70 [24]): 3 relative luminescence units | Athena reading (Jo-1 [25]): 5 relative luminescence units | Athena reading (Centromere B [26]): 16 relative luminescence units | Athena reading (Histones [27]): 6 relative luminescence units | Athena reading (SSA [28]): 4 relative luminescence units | Athena reading (SSB [29]): 5 relative luminescence units | Athena reading (Sm (Smith antigen) [30]): 4 relative luminescence units | Athena reading (RNP (ribonucleoprotein) [31]): 4 relative luminescence units | Athena reading (Scl-70 [32]): 3 relative luminescence units | Athena reading (Jo-1 [33]): 5 relative luminescence units | Athena reading (Centromere B [34]): 11 relative luminescence units | Athena reading (Histones [35]): 4 relative luminescence units
